Where a chain is given by its changes, count along the chain named. In names and notes the source's numbering stands.
T1: human FcγRIIaR extracellular domain with C-terminal His-tag (human, UniProt P12318 34-217)
T1 construct: also called human FcgRIIaR; FcγRIIa (type R)
T1 chain: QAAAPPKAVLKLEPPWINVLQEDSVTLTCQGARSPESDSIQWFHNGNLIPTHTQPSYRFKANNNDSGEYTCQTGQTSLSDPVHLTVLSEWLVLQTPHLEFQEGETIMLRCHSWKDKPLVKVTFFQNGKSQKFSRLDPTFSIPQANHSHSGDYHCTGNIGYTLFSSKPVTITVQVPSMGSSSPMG

T2: cynomolgus monkey FcγRIIb extracellular domain with C-terminal His-tag (cynomolgus monkey)
T2 construct: also called cyno FcgRIIb; cynoFcγRIIb
T2 chain: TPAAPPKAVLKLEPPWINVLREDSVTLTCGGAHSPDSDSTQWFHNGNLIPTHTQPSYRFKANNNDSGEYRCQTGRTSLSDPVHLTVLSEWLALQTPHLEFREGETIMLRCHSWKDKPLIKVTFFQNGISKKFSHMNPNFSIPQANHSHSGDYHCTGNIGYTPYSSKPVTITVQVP

T3: cynomolgus monkey FcγRIIIaS extracellular domain with C-terminal His-tag (cynomolgus monkey, UniProt Q8SPW2 21-206 at identity 1.00))
T3 construct: also called cyno FcgRIIIaS; cynoFcγRIIIaS
T3 chain: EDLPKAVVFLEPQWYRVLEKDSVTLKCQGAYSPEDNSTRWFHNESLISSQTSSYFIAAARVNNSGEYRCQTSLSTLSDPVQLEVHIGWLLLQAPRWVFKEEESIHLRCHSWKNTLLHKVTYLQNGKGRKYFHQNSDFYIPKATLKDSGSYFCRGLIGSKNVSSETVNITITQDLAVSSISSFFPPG

T4: cynomolgus monkey FcγRIIa1 extracellular domain with C-terminal His-tag (cynomolgus monkey)
T4 construct: also called cyno FcgRIIa1; cynoFcγRIIa1
T4 chain: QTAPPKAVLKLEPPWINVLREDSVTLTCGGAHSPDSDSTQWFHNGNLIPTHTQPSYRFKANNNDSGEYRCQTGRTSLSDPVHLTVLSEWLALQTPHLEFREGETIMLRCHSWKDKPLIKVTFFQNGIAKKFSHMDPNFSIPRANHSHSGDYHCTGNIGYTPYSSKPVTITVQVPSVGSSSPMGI

T5: human FcγRIIaH extracellular domain with C-terminal His-tag (human, UniProt P12318 34-217)
T5 construct: also called human FcgRIIaH; FcγRIIa (type H)
T5 sequence: T1 chain with R134H

T6: human FcγRIIb extracellular domain with C-terminal His-tag (human, UniProt P31994 43-217)
T6 construct: also called human FcgRIIb
T6 sequence: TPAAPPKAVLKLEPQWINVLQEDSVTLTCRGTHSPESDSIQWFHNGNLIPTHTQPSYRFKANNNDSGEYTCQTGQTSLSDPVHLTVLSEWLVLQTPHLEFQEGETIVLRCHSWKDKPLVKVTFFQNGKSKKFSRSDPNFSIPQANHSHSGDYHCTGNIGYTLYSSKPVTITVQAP

T7: cynomolgus monkey FcγRIIa2 extracellular domain with C-terminal His-tag (cynomolgus monkey)
T7 construct: also called cyno FcgRIIa2; cynoFcγRIIa2
T7 chain: T4 chain with P95T, T121A, I127K, A128S, K130N, D135N, R142Q

T8: cynomolgus monkey FcγRIIa3 extracellular domain with C-terminal His-tag (cynomolgus monkey)
T8 construct: also called cyno FcgRIIa3; cynoFcγRIIa3
T8 chain: T4 chain with P95T, T121A, A128S, H133P, D135N

B1: M103205H795-MY535/M103202L889-SK1 (antibody, human IgG1, kappa)
heavy: QVTLKESGPVLVKPTETLTLTCTVSGIDLSHDDISWVRQAPGKGLEWVGIISYAGSTYYASWAKGRLTISKDTSKNQVVLTMTNMDPVDTATYYCARGVPAYSHGGDLWGQGTLVTVSSASTKGPSVFPLAPSSKSTSGGTAALGCLVKDYFPEPVTVSWNSGALTSGVHTFPAVLQSSGLYSLSSVVTVPSSSLGTQTYICNVNHKPSNTKVDKKVEPKSCDKTHTCPPCPGPEWLTGPSVFLFPPKPKDTLMISRTPEVTCVVVDVSDEDPEVKFNWYVDGVEVHNAKTKPREEQYNSTYRVVSVLTVLHQDWLNGKEYKCKVSNKALPKPIEKTISKAKGQPREPQVYTLPPSREEMTKNQVSLTCLVKGFYPSDIAVEWESNGQPENNYKTTPPVLDSDGSFFLYSKLTVDKSRWQQGNVFSCSVMHEALHNHYTQKSLSLSP
light: DIVMTQSPATLSLSPGERATLSCTSSQSVYHANWLSWFQQKPGQPPKLLIYWASTLAYGVPSRFSGSGSGTDFTLTISSLQPEDAATYYCAGGYGGGRYAFGQGTKVEIKRTVAAPSVFIFPPSDEQLKSGTASVVCLLNNFYPREAKVQWKVDNALQSGNSQESVTEQDSKDSTYSLSSTLTLSKADYEKHKVYACEVTHQGLSSPVTKSFNRGEC
notes: Substitutions introduced into M103205H795-SG1, expressed with M103202L889-SK1 as light chain; EU numbering
B2: M103205H795-MY538/M103202L889-SK1 (A231G/L234W/G236T/H268D/Q295L/A330K) (antibody, human IgG1, kappa)
heavy: B1 heavy with Q297L
light: B1 light
notes: as for B1
B3: M103205H795-MY536/M103202L889-SK1 (antibody, human IgG1, kappa)
heavy: B1 heavy with S241V
light: B1 light
notes: as for B1
B4: M103205H795-MY537/M103202L889-SK1 (antibody, human IgG1, kappa)
heavy: B1 heavy with S241V, Q297L
light: B1 light
notes: as for B1

Legend:
Assay in all cases: SPR (BIACORE), antibody captured, FcgR analyte
[1] = molecular target: T1, human FcγRIIaR extracellular domain …
Method: (§1) The kinetic analysis of interactions between these antibodies and FcγR was carried out using BIACORE® T200 or BIACORE® 4000 (GE Healthcare). HBS-EP+ (GE Healthcare) was used as the running buffer, and the measurement temperature was set to 25° C. A chip produced by immobilizing Protein A. Protein A/G or mouse anti-human IgG kappa light chain (BD Biosciences) onto a Series S Sensor Chip CM4 or CM5 (GE Healthcare) by the amine-coupling method was used. […] After the measurement, the antibody captured on the chip was washed off by allowing reaction with 10 mM glycine-HCl, pH1.5 and 25 mM NaOH so that the chip was regenerated and used repeatedly. The sensorgrams obtained as measurement results were analyzed by the 1:1 Langmuir binding model using the BIACORE® Evaluation Software to calculate the binding rate constant ka (L/mol/s) and dissociation rate constant kd (l/s), and the dissociation constant KD (mol/L) was calculated from these values. […] Regarding such interactions, KD values were calculated using the following 1:1 binding model described in BIACORE® T100 Software Handbook BR1006-48 Edition AE.
(§2) The behavior of interacting molecules according to the 1:1 binding model on BIACORE® can be described by Equation 1: Req=C·R max/(KD+C)+RI, wherein, Req is a plot of steady-state binding levels to analyte concentration. C is concentration, RI is bulk refractive index contribution in the sample, and Rmax is analyte binding capacity of the surface. When this equation is rearranged, KD can be expressed as Equation 2: KD=C·Rmax/(Req−RI)−C. KD can be calculated by substituting the values of Rmax, RI, and C into Equation 1 or Equation 2. From the current measurement conditions, RI=0, C=2 μmol/L can be used.

[2] = molecular target: T2, cynomolgus monkey FcγRIIb extracellular …
Method: as §1, §2

[3] = molecular target: T3, cynomolgus monkey FcγRIIIaS …
Method: as §1, §2

[4] = molecular target: T4, cynomolgus monkey FcγRIIa1 …
Method: as §1, §2

[5] = molecular target: T9, human FcγRIIIaV extracellular domain with C-terminal His-tag (human, UniProt P08637 17-208)
T9 construct: also called human FcgRIIIaV
Method: as §1, §2

[6] = molecular target: T5, human FcγRIIaH extracellular domain …
Method: as §1, §2

[7] = molecular target: T6, human FcγRIIb extracellular domain with …
Method: as §1, §2

[8] = molecular target: T7, cynomolgus monkey FcγRIIa2 …
Method: as §1, §2

[9] = molecular target: T8, cynomolgus monkey FcγRIIa3 …
Method: as §1, §2

T9 sequence (P08637 17-208 F176V): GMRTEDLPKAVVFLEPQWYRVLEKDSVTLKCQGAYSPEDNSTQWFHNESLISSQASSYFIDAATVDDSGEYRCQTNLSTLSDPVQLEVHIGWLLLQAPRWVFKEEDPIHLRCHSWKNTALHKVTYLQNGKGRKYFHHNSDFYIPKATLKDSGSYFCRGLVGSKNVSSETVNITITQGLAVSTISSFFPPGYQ

| Binder | Kd [1] [nM] | Kd [2] [nM] | Kd [3] [nM] | Kd [4] [nM] | Kd [5] [nM] | Kd [6] [nM] | Kd [7] [nM] | Kd [8] [nM] | Kd [9] [nM] |
| --- | --- | --- | --- | --- | --- | --- | --- | --- | --- |
| B1 | 640 | 410 | 2100 | 1300 | 3200 | 390 | 1900 | 1400 | 3000 |
| B2 | 620 | 280 | 2400 | 960 | 5700 | 250 | 1300 | 1100 | 3000 |
| B3 | 220 | 400 | 1600 | 1300 | 3700 | 290 | 990 | 1100 | 980 |
| B4 | 370 | 320 | 1500 | 1200 | 3300 | 280 | 1000 | 1100 | 1400 |

From patent US20200317768A1 (published 2020)
